# Test results published in patent publication US20090192048A1, “METHOD OF PRODUCING A […] AGENT FOR BINDING A LIGAND” (priority 2005, published 2009).
# Several values for one entry are separate records, joined by “and”; a condition that tells them apart may be missing. Equal entries are not always repeated. Ends that are not written are not given here.
# Assays:
# Type in all cases: physicochemical
# [1] = Retention of peptides in flat-bottomed polypropylene wells; details: flat-bottom wells, 500V scan; for Untreated fluorescence: unwashed; for Retained fluorescence: washed 15 minutes in 1 M NaCl in 10 mM tris-HCl (pH 8.0)
# Protocol: (§1) The retention of peptides 2DOS-1 to 2DOS-16 (see above) on polypropylene wells of different geometries was investigated:
# (§2) 10 mM tris-HCl (pH 8.0) in 50% (v/v) aqueous acetonitrile was used as the solvent for the peptides and for TAMRA.
# (§3) 1 μl aliquots of 10 μM peptides 2DOS-1 to 2DOS-16 and 10 μM TAMRA were pipetted into the wells of a Costar V-bottomed polypropylene microtitre plate and a Greiner flat-bottomed polypropylene microtitre plate according to the following scheme as shown in FIG. 22:
# (§4) The peptide samples were allowed to evaporate to dryness in the dark.
# (§5) The peptide samples in the top two rows of the microtitre plates were then incubated for 15′ minutes at room temperature in 250 μl of 1 M NaCl in 10 mM tris-HCl (pH 8.0).
# (§6) After incubation, the wash buffer was pipetted up and down eight times in the well before removing the supernatant.
# (§7) The washed and untreated peptide samples were then resuspended in 50 μl of 10 mM tris-HCl (pH 8.0) in 50% (v/v) aqueous acetonitrile.
# (§8) The microtitre plates were imaged at 200 μm resolution on a Typhoon Trio Plus variable mode imager (Amersham Biosciences) with the green (532 nm) laser and the 580 BP 30 filter at the PMT voltages indicated below and at normal sensitivity. The scan height was set at the platen and the sample was pressed during, scanning.
# (§9) The fluorescence images were analysed using ImageQuant TL v2003.03 (Amersham Biosciences).
# [2] = Retention of peptides on Greiner polypropylene V-bottom wells; details: 400V scan; for Untreated fluorescence: unwashed; for Retained fluorescence: washed 15 minutes in 1 M NaCl in 10 mM tris-HCl (pH 8.0)
# Protocol: (§10) The retention of peptides 2DOS-1 to 2DOS-16 (see above) on polypropylene and polystyrene surfaces was compared:
# (§11) 5 mM tris-HCl (pH 8.0) in 75% (v/v) aqueous acetonitrile was used as the solvent for the peptides and for TAMRA.
# (§12) 20 μl aliquots of 5 μM peptides 2DOS-1 to 2DOS-16 and 5 μM TAMRA were pipetted into the wells of a Costar V-bottomed polypropylene microtitre plate, a Greiner V-bottomed polypropylene microtitre plate, and a Greiner V-bottomed polystyrene microtitre plate according to the scheme shown in FIG. 26:
# as §4
# (§13) The peptide samples in the top two rows of the microtitre plates were then incubated for 15 minutes at room temperature in 250 μl of 1 M NaCl in 10 mM tris-HCl (pH 8.0).
# as §6, §7
# as §8, with “+3 mm” for “the platen”, “during” for “during,”
# as §9
# [3] = Retention of peptides on Greiner polystyrene V-bottom wells; details: 400V scan; for Untreated fluorescence: unwashed; for Retained fluorescence: washed 15 minutes in 1 M NaCl in 10 mM tris-HCl (pH 8.0)
# Protocol: as §10, §11, §12, §4, §13, §6, §7
# as §8, with “+3 mm” for “the platen”, “during” for “during,”
# as §9
# [4] = Retention of peptides in V-bottomed polypropylene wells; details: V-bottom wells, 500V scan; for Untreated fluorescence: unwashed; for Retained fluorescence: washed 15 minutes in 1 M NaCl in 10 mM tris-HCl (pH 8.0)
# Protocol: as §1, §2, §3, §4, §5, §6, §7, §8, §9
# [5] = Retention of peptides 2DOS-1 to 2DOS-16 on a hydrophobic surface (polypropylene microtitre plate wells), water wash; details: 400V scan; for Initial fluorescence (×10^3): 100 μl of 10 μM peptide before drying and washing; for Recovered fluorescence (×10^3): dried, washed ten times with 250 μl water, resuspended
# Protocol: The retention of peptides 2DOS-1 to 2DOS-16 on a hydrophobic surface (the wells of a polypropylene microtitre plate) was then investigated.
# as §2
# 100 μl aliquots of 10 μM peptides 2DOS-1 to 2DOS-16 and 10 μM TAMRA were placed in the wells of a Costar microtitre plate as shown in FIG. 13:
# as §8, with “plate was” for “plates were”, “+3 mm” for “the platen”, “during” for “during,”
# The peptides were allowed to evaporate to dryness overnight in the dark and the microtitre plate was again scanned as described above.
# The wells were then washed ten times with 250 μl of water.
# The residual surface-bound peptides were finally resuspended in 100 μl of 10 mM tris-HCl (pH 8.0) in 50% (v/v) aqueous acetonitrile and the microtitre plate was again scanned as described above.
# as §9
# Quantification data (using the data from the 400V scan) is given in Table 2 and shown graphically in FIG. 15.
# [6] = Retention of peptides on Costar polypropylene V-bottom wells; details: 400V scan; for Untreated fluorescence: unwashed; for Retained fluorescence: washed 15 minutes in 1 M NaCl in 10 mM tris-HCl (pH 8.0)
# Protocol: as §10, §11, §12, §4, §13, §6, §7
# as §8, with “+3 mm” for “the platen”, “during” for “during,”
# as §9
# [7] = Retention of peptides P1-1 to P1-5 on a polypropylene sheet after successive washes; details: for Average fluorescence, control array / Corrected signal, control array: unwashed control array
# Protocol: Further experiments were undertaken to investigate the retention of peptides P1-1 to, P1-5 and P2-1 to P2-2, shown in Table 3, on a polypropylene surface.
# The polypropylene sheet was wiped with 50% (v/v) aqueous acetonitrile prior to use.
# 8× replicate 20 nl volumes of 1 μM peptides P1-1 to P1-5 and P2-1 to P2-2 and TAMRA in dimethyl sulphoxide (DMSO) were dispensed at 1 mm spacing to a 3″×1″×1 mm polypropylene sheet using the Piezorray system (PerkinElmer LAS). 500 drops were pre-dispensed using the ‘side shoot’ option and the tuning was set to 72V for 30 μs.
# The slide was imaged at 10 μm resolution on a Typhoon Trio Plus variable mode imager (Amersham Biosciences) with the green (532 nm) laser and the 580 BP 30 filter at a PMT voltage of 600 V and at normal sensitivity. The scan height was set at the platen and the samples were pressed during scanning. The fluorescence image was analysed using ImageQuant TL v2003.03 (Amersham Biosciences).
# The lower half of the slide (containing the test array) was then washed in 100 ml of 1 M NaCl containing 10 mM tris-HCl (pH 8.0) for one minute and were re-scanned as described above.
# The same half of the slide was then washed for a second time in 100 ml of 1 M NaCl containing 10 mM tris-HCl (pH 8.0) for 30 minutes and re-scanned as described above.
# The same half of the slide was then washed for a third time in 100 ml of water for 30 minutes and re-scanned as described above.
# [8] = after first wash scan, slide background subtracted
# [9] = after first wash: 1 M NaCl/10 mM tris-HCl (pH 8.0), one minute
# [10] = after first wash: 1 M NaCl/10 mM tris-HCl (pH 8.0), one minute, background subtracted
# [11] = after second wash scan, background subtracted
# [12] = after second wash: 1 M NaCl/10 mM tris-HCl (pH 8.0), 30 minutes
# [13] = after second wash: 1 M NaCl/10 mM tris-HCl (pH 8.0), 30 minutes, background subtracted
# [14] = after third wash scan, background subtracted
# [15] = after third wash: water, 30 minutes
# [16] = after third wash: water, 30 minutes, background subtracted
Substance,Untreated fluorescence [1],Percent retention [2],Untreated fluorescence [2],Retained fluorescence [2],Percent retention [3],Untreated fluorescence [3],Retained fluorescence [3],Percent retention [4],"Average fluorescence, control array ([7]; after first wash scan)","Corrected signal, control array [7, 8]","Average fluorescence, test array [7, 9]","Corrected signal, test array [7, 10]","Average fluorescence, control array ([7]; after second wash scan)","Corrected signal, control array [7, 11]","Average fluorescence, test array [7, 12]","Corrected signal, test array [7, 13]","Average fluorescence, control array ([7]; after third wash scan)","Corrected signal, control array [7, 14]","Average fluorescence, test array [7, 15]","Corrected signal, test array [7, 16]",further results
N-TAMPA-Asp-Asp- Asp-Asp-Asp-Asp- Asp-Asp-Asp-C ({TAMRA}-DDDDDDDDD) [Peptide 2DOS-12],"12,982,170",1%,"3,235,590","20,175",1%,"684,832","3,788",1%,–,–,–,–,–,–,–,–,–,–,–,–,"Percent retention [1]: 1%; Retained fluorescence [1]: 106,741; Untreated fluorescence [4]: 6,777,661; Retained fluorescence [4]: 52,365; Initial fluorescence (×10^3) [5]: 26,433 ×10^3; Recovered fluorescence (×10^3) [5]: 1 ×10^3; Percent retention [6]: 0%; Untreated fluorescence [6]: 4,432,090; Retained fluorescence [6]: 18,180"
TAMRA-F-G-F-G-F-G-F-G-F-S-F-A-F-D-F-G-F ({TAMRA}-FGFGFGFGFSFAFDFGF) [Peptide P1-4],–,–,–,–,–,–,–,–,"187,287,630","40,595,958","189,823,310","35,325,352","179,942,418","42,662,569","159,100,527","26,653,223","176,102,487","42,195,247","135,681,173","11,383,947",–
N-TAMPA-Asp-Asp- Asp-Asp-Asp-Asp- Asp-C ({TAMRA}-DDDDDDD) [Peptide 2DOS-16],"15,555,465",1%,"3,813,060","25,885",0%,"789,858","3,864",0%,–,–,–,–,–,–,–,–,–,–,–,–,"Percent retention [1]: 1%; Retained fluorescence [1]: 229,090; Untreated fluorescence [4]: 9,782,527; Retained fluorescence [4]: 44,420; Initial fluorescence (×10^3) [5]: 30,335 ×10^3; Recovered fluorescence (×10^3) [5]: 3 ×10^3; Percent retention [6]: 0%; Untreated fluorescence [6]: 5,387,850; Retained fluorescence [6]: 16,194"
TAMRA-F-G-F-G-F-G-F-G-F-G-F-S-F-A-F-D-F-G-F ({TAMRA}-FGFGFGFGFGFSFAFDFGF) [Peptide P1-5],–,–,–,–,–,–,–,–,"199,347,483","52,655,810","201,991,732","47,493,774","190,847,825","53,567,975","167,865,473","35,418,169","183,492,293","49,585,053","147,812,043","23,514,817","Retention on polypropylene surface (in words) ([7]; compared among P1-1 to P1-5, chain length of 19 amino acids): highest retention"
TAMRA-F-G-F-G-F-G-F-S-F-A-F-D-F-G-F ({TAMRA}-FGFGFGFSFAFDFGF) [Peptide P1-3],–,–,–,–,–,–,–,–,"192,743,469","46,051,796","171,197,973","16,700,014","187,310,655","50,030,806","148,725,456","16,278,152","184,219,147","50,311,907","125,717,642","1,420,417",–
TAMRA [reference compound],"18,396,859 and 20,662,891 and 20,649,165",1%,"6,199,206","64,916",1%,"1,051,154","10,004",5% and 4% and 6%,–,–,–,–,–,–,–,–,–,–,–,–,"Untreated fluorescence [4]: 12,610,993 and 15,392,751 and 17,471,866; Retained fluorescence [4]: 640,684 and 686,863 and 998,320; Percent retention [6]: 3%; Untreated fluorescence [6]: 11,786,211; Retained fluorescence [6]: 386,629"
TAMRA-F-G-F-G-F-S-F-A-F-D-F-G-F ({TAMRA}-FGFGFSFAFDFGF) [Peptide P1-2],–,–,–,–,–,–,–,–,"200,280,129","53,588,457","170,078,218","15,580,260","196,080,891","58,801,042","135,695,639","3,248,336","185,727,868","51,820,628","126,193,156","1,895,931",–
TAMRA-F-G-F-S-F-A-F-D-F-G-F ({TAMRA}-FGFSFAFDFGF) [Peptide P1-1],–,–,–,–,–,–,–,–,"244,263,013","97,571,341","157,624,537","3,126,578","225,863,933","88,584,083","127,216,792","−5,230,512","218,342,010","84,434,769","124,941,941","644,716",–
